# Source: patent US20230192886A1 (published 2023)
# B1: R17P1A9 (TCR, V domains shown)
# Valpha: QKEVEQNSGPLSVPEGAIASLNCTYSDRGSQSFFWYRQYSGKSPELIMSIYSNGDKEDGRFTAQLNKASQYVSLLIRDSQPSDSATYLCAVLNQAGTALIFGKGTTLSVSS
# Vbeta: DSGVTQTPKHLITATGQRVTLRCSPRSGDLSVYWYQQSLDQGLQFLIQYYNGEERAKGNILERFSAQQFPDLHSELNLSSLELGDSALYFCASSAETGPWLGNEQFFGPGTRLTVL
# B2: R16P1E8 (TCR, V domains shown)
# Valpha: QKEVEQDPGPLSVPEGAIVSLNCTYSNSAFQYFMWYRQYSRKGPELLMYTYSSGNKEDGRFTAQVDKSSKYISLFIRDSQPSDSATYLCAMSEAAGNKLTFGGGTRVLVKP
# Vbeta: EAGVAQSPRYKIIEKRQSVAFWCNPISGHATLYWYQQILGQGPKLLIQFQNNGVVDDSQLPKDRFSAERLKGVDSTLKIQPAKLEDSAVYLCASSYTNQGEAFFGQGTRLTVV
# B3: R17P1D7 (TCR, V domains shown)
# Valpha: AQTVTQSQPEMSVQEAETVTLSCTYDTSESDYYLFWYKQPPSRQMILVIRQEAYKQQNATENRFSVNFQKAAKSFSLKISDSQLGDAAMYFCAYRWAQGGSEKLVFGKGTKLTVNP
# Vbeta: EADIYQTPRYLVIGTGKKITLECSQTMGHDKMYWYQQDPGMELHLIHYSYGVNSTEKGDLSSESTVSRIRTEHFPLTLESARPSHTSQYLCATELWSSGGTGELFFGEGSRLTVL
# Molecular target: T1, PRAME (PRAME-004) peptide on HLA-A*02:01 (human)
# T1 peptide: SLLQHLIGL
# Experiment: cytokine release
row,Binder,binding result
1,B1,recognises
2,B2,recognises
3,B3,recognises
